From patent publication US20230129812A1 (ACCELERON PHARMA, published 2023)
Where two headings read alike, the source gives them in different places. Values belong to the binder of their own block, whether it stands above or below them.

B3: BMP10 (ligand, UniProt O95393 317-424, looked up)
chain: NAKGNYCKRTPLYIDFKEIGWDSWIIAPPGYEAYECRGVCNYPLAEHLTPTKHAIIQALVHLKNSQKASKACCVPTKLEPISILYLDKGVVTYKFKYEGMAVSECGCR
B5: GDF11 (ligand, UniProt O95390 299-407, looked up)
chain: NLGLDCDEHSSESRCCRYPLTVDFEAFGWDWIIAPKRYKANYCSGQCEYMFMQKYPHTHLVQQANPRGSAGPCCTPTKMSPINMLYFNDKQQIIYGKIPGMVVDRCGCS
notes: also called BMP11

What was measured:
BMP10 [1] = molecular target: B3; assay: SPR (Biacore); receptor-Fc captured by anti-Fc antibody, ligand injected
Experimental: (§1) A Biacore™-based binding assay was used to compare ligand binding selectivity of the ActRIIA-Fc:ALK4-Fc heterodimeric complex described above with that of ActRIIA-Fc and ALK4-Fc homodimeric complexes. The ActRIIA-Fc:ALK4-Fc heterodimer, ActRIIA-Fc homodimer, and ALK4-Fc homodimer were independently captured onto the system using an anti-Fc antibody. Ligands were injected and allowed to flow over the captured receptor protein. Results are summarized in Table 14 below, in which ligand off-rates (kd) most indicative of effective ligand traps are denoted in bold.

activin AC = molecular target: T1, activin AC (UniProt P08476 311-426; P55103 237-352); assay: as above
T1 sequence (looked up) 1: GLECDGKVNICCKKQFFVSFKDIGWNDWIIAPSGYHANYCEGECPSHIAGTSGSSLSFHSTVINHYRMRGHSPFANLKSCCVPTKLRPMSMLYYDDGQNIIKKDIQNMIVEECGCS
T1 sequence (looked up) 2: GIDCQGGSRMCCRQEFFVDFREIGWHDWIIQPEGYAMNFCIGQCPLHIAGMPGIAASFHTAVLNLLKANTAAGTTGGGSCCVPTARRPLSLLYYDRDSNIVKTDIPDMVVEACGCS
Experimental: as §1

BMP6 [2] = molecular target: T2, BMP6 (UniProt P22004 375-513, limits assumed); assay: as above
T2 sequence (looked up): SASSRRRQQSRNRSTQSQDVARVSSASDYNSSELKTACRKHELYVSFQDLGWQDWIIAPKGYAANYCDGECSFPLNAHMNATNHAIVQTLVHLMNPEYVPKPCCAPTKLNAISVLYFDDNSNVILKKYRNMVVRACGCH
Experimental: as §1

activin A [3] = molecular target: T3, activin A (UniProt P08476 311-426); assay: as above
T3 construct: also called ActA
T3 sequence (looked up): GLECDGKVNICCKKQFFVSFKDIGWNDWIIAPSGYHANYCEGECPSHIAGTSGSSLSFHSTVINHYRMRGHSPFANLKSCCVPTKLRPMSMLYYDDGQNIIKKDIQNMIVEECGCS
Experimental: as §1

GDF11 [4] = molecular target: B5; assay: as above
Experimental: as §1

activin AB = molecular target: T4, activin AB (UniProt P08476 311-426; P09529 293-407); assay: as above
T4 sequence (looked up) 1: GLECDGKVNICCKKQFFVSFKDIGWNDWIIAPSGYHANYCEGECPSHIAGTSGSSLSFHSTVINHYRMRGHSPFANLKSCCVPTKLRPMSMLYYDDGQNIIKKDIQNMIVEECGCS
T4 sequence (looked up) 2: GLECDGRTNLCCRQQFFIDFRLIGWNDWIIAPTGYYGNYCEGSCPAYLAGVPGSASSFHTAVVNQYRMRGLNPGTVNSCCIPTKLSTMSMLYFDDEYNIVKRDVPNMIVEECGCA
Experimental: as §1

BMP7 = molecular target: T5, BMP7 (UniProt P18075 293-431); assay: as above
T5 sequence (looked up): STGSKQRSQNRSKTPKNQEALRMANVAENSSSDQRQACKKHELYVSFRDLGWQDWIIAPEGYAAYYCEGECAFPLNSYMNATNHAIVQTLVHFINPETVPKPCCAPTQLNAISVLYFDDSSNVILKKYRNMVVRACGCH
Experimental: as §1

GDF11 [5] = molecular target: B5; assay: SPR (Biacore); receptor-Fc captured by anti-Fc antibody, ligand injected; † Very low signal
Experimental: as §1

GDF11 [6] = molecular target: B5; assay: as above; remark: listed apart in the source
Experimental: as §1

activin A [7] = molecular target: T3, activin A; assay: SPR (Biacore); receptor-Fc captured by anti-Fc antibody, ligand injected; remark: listed apart in the source
Experimental: (§2) A Biacore™-based binding assay was used to compare ligand binding selectivity of the ALK4-Fc:ActRIIB-Fc heterodimeric complex described above with that of ActRIIB-Fc and ALK4-Fc homodimer complexes. The ALK4-Fc:ActRIeB-Fc heterodimer, […], and ALK4-Fc homodimer were independently captured onto the system using an anti-Fc antibody. Ligands were injected and allowed to flow over the captured receptor protein. Results are summarized in Table 13 below, in which ligand off-rates (kd) most indicative of effective polypeptides are denoted in bold.

activin B = molecular target: T6, activin B (UniProt P09529 293-407); assay: as above
T6 sequence (looked up): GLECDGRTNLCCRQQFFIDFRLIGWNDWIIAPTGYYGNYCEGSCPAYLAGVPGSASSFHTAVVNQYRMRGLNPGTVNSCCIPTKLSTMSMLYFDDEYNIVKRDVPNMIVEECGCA
Experimental: as §2

GDF11 [8] = molecular target: B5; assay: as above; remark: listed apart in the source
Experimental: as §2

activin A [9] = molecular target: T3, activin A; assay: SPR (Biacore); ligand coupled, receptor flowed over (as reported in WO2006/012627); + means WT
Text: (§3) Other variants have been generated and tested, as reported in WO2006/012627 (incorporated herein by reference in its entirety). See, e.g., pp. 59-60, using ligands coupled to the device and flowing receptor over the coupled ligands. […] Table 11 showing data with respect to these variants is reproduced below: […]

GDF11 [10] = molecular target: B5; assay: SPR (Biacore); ligand coupled, receptor flowed over (as reported in WO2006/012627)
Text: as §3

ActRIIA-mFc [11] = molecular target: T7, ActRIIA-mFc (human, UniProt P27037 21-135); assay: SPR (Biacore), similar binding assay
T7 construct: not shown: minimal linker and mouse Fc domain
T7 sequence (P27037 21-135): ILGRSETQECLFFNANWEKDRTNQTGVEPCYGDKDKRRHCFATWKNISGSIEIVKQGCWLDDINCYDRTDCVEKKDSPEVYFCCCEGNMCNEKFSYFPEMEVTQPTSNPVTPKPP
Experimental: GDF11 or activin A were immobilized on a Biacore™ CM5 chip using standard amine-coupling procedure. ActRIIA-hFc and ActRIIA-mFc proteins were loaded onto the system, and binding was measured. […] Using a similar binding assay, ActRIIA-hFc was determined to have high to moderate affinity for other TGF-beta superfamily ligands including, for example, activin B, GDF8, BMP6, and BMP10. ActRIIA-mFc behaved similarly.

BMP10 [12] = molecular target: B3; assay: SPR (Biacore)
BMP6 [13] = molecular target: T2, BMP6; assay: SPR (Biacore)
GDF8 = molecular target: T8, GDF8 (UniProt O14793 267-375); assay: SPR (Biacore)
T8 construct: also called myostatin
T8 sequence (looked up): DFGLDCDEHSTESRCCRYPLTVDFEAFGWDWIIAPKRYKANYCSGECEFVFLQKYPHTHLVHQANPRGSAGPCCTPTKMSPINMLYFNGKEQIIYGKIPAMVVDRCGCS

ActRIIA-mFc [14] = molecular target: T7, ActRIIA-mFc; assay: SPR (Biacore); ligand amine-coupled to CM5 chip, receptor-Fc injected
[15] = molecular target: T9, Soluble ActRIIB-Fc +15tail (Homo sapiens (Human), UniProt Q13705 19-134); assay: SPR (Biacore); ligand coupled, receptor flowed over (as reported in WO2006/012627)
T9 construct: not shown: linker and Fc
T9 sequence (looked up): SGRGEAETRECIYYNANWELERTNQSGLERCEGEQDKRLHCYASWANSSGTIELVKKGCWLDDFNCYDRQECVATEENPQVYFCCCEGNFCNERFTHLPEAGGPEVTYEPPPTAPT
Text: as §3

binding result (BMP10 [1]): no binding | binding result (activin AC): no binding | binding result (BMP6 [2]): no binding | Kd (activin A [3]): 0.02 µM | koff (activin A [3]): 0.012 s⁻¹ | kon (activin A [3]): 580000 M⁻¹ s⁻¹ | koff (GDF11 [4]): 0.0048 s⁻¹ | kon (GDF11 [4]): 5e+06 M⁻¹ s⁻¹ | Kd (activin AB): 0.002 µM | koff (activin AB): 0.0036 s⁻¹ | kon (activin AB): 1.8e+06 M⁻¹ s⁻¹ | binding result (BMP7): no binding | Kd (GDF11 [5]): 0.00097 µM | Kd (GDF11 [6]): 0.00097 µM | Kd (activin A [7]): 0.02 µM | koff (activin A [7]): 0.012 s⁻¹ | kon (activin A [7]): 580000 M⁻¹ s⁻¹ | binding result (activin B): no binding | koff (GDF11 [8]): 0.0048 s⁻¹ | kon (GDF11 [8]): 5e+06 M⁻¹ s⁻¹
B1: ALK4-Fc homodimer (Fc fusion, not shown: a dimerising Fc or GST)
chain: SGPRGVQALLCACTSCLQANYTCETDGACMVSIFNLDGMEHHVRTCIPKVELVPAGKPFYCLSSEDLRNTHCCYTDYCNRIDLRVPSGHLKEPEHPSMWGPVE

binding result (activin A [9]): binds | binding result (GDF11 [10]): no binding
B2: Soluble ActRIIB-Fc L79A (Table 11) (Fc fusion, UniProt Q13705 19-119, looked up, not shown: a dimerising Fc or GST)
chain: SGRGEAETRECIYYNANWELERTNQSGLERCEGEQDKRLHCYASWANSSGTIELVKKGCWADDFNCYDRQECVATEENPQVYFCCCEGNFCNERFTHLPEA

Binder: B3
binding result (ActRIIA-mFc [11]): binds

binding result (BMP10 [12]): binds | binding result (BMP6 [13]): binds | binding result (GDF8): binds
B4: ActRIIB(L79D 25-131)-hFc (Fc fusion)
chain: ETRECIYYNANWELERTNQSGLERCEGEQDKRLHCYASWRNSSGTIELVKKGCWDDDFNCYDRQECVATEENPQVYFCCCEGNFCNERFTHLPEAGGPEVTYEPPPTGGGTHTCPPCPAPELLGGPSVFLFPPKPKDTLMISRTPRVTCVVVDVSHEDPEVKFNWYVDGVEVHNAKTKPREEQYNSTYRVVSVLTVLHQDWLNGKEYKCKVSNKALPAPIEKTISKAKGQPREPQVYTLPPSREEMTKNQVSLTCLVKGFYPSDIAVEWESNGQPENNYKTTPPVLDSDGSFFLYSKLTVDKSRWQQGNVFSCSVMHEALHNHYTQKSLSLSPGK

Binder: B5
binding result (ActRIIA-mFc [14]): binds | Kd [15]: 0.019 µM
